According to patent publication US20190175744A1 (Merck Sharp & Dohme, published 2019):
Starred links: 1 amine or outer side, 2 acyl side, 3 side chain; linkers in the order of their positions; H or OH if unused. Non-standard residues stand in square brackets, D forms with d. Groups on a side chain read outwards from the residue. No end group written: not given here. *: point of attachment. C20 diacid = O=C(O)CCCCCCCCCCCCCCCCCCC(=O)*; Lys(N3) = [N-]=[N+]=NCCCC[C@H](N)C(=O)O; γGlu = O=C(O)[C@H](CCC(=O)[*:2])N[*:1]; Met(O2) = CS(=O)(=O)CC[C@H](N)C(=O)O; AEEA = NCCOCCOCC(=O)O; Aib = CC(C)(N)C(=O)O

B1: PEP31 (peptide)
peptide: H[Aib]QGTFTSDYSKYLDARAAK([AEEA-AEEA-γGlu-C20 diacid])DFV[Lys(N3)]WL[Met(O2)]DT-NH2
modifications: N-terminus assumed
SMILES: CC(C)C[C@H](NC(=O)[C@H](Cc1ccc(O)cc1)NC(=O)[C@H](CCCCN)NC(=O)[C@H](CO)NC(=O)[C@H](Cc1ccc(O)cc1)NC(=O)[C@H](CC(=O)O)NC(=O)[C@H](CO)NC(=O)[C@@H](NC(=O)[C@H](Cc1ccccc1)NC(=O)[C@@H](NC(=O)CNC(=O)[C@H](CCC(N)=O)NC(=O)C(C)(C)NC(=O)[C@@H](N)Cc1c[nH]cn1)[C@@H](C)O)[C@@H](C)O)C(=O)N[C@@H](CC(=O)O)C(=O)N[C@@H](C)C(=O)N[C@@H](CCCNC(=N)N)C(=O)N[C@@H](C)C(=O)N[C@@H](C)C(=O)N[C@@H](CCCCNC(=O)COCCOCCNC(=O)COCCOCCNC(=O)CC[C@H](NC(=O)CCCCCCCCCCCCCCCCCCC(=O)O)C(=O)O)C(=O)N[C@@H](CC(=O)O)C(=O)N[C@@H](Cc1ccccc1)C(=O)N[C@H](C(=O)N[C@@H](CCCCN=[N+]=[N-])C(=O)N[C@@H](Cc1c[nH]c2ccccc12)C(=O)N[C@@H](CC(C)C)C(=O)N[C@@H](CCS(C)(=O)=O)C(=O)N[C@@H](CC(=O)O)C(=O)N[C@H](C(N)=O)[C@@H](C)O)C(C)C
B2: PEP32 (peptide)
peptide: HXQGTFTSXKSKYLDERAAQDFVXWLXDT
modifications: D-Ser (s) at 2; alpha-methyl-L-Asp (αMD) at 9; Lys 10 K(γEγEC16); Nle(εN3) at 24; L-methionine sulphone (2) at 27; C-terminal amide
B3: PEP34 (peptide)
peptide: HXQGTFTSDKSKYLDERAAQXFVXWLXDT
modifications: D-Ser (s) at 2; Lys 10 K(γEγEC16); alpha-methyl-L-Asp (αMD) at 21; Nle(εN3) at 24; L-methionine sulphone (2) at 27; C-terminal amide
B4: PEP37 (peptide)
peptide: HXQGTFTSDKSKYLDERAAQDFVXWXXDT
modifications: D-Ser (s) at 2; Lys 10 K(γEγEC16); Nle(εN3) at 24; alpha-methyl-L-Leu (αML) at 26; L-methionine sulphone (2) at 27; C-terminal amide
B5: PEP35 (peptide)
peptide: HXQGTFTSDKSKYLDERAAQDXVXWLXDT
modifications: D-Ser (s) at 2; Lys 10 K(γEγEC16); alpha-methyl-L-Phe (αMF) at 22; Nle(εN3) at 24; L-methionine sulphone (2) at 27; C-terminal amide
B6: PEP74 (peptide)
peptide: HXQGTFTSDKSKYLDERAAQDFVXWLLDT
modifications: HsQGTFTSDK(γEγEC16)…le(ϵN3)WLLDT-NH2 (s=D-serine; K(γEγEC16) at 10; Nle(ϵN3)=azidonorleucine at 24; NH2=C-terminal amide)

Columns and labels:
Test in all cases: cell-based or functional assay
human glucagon receptor = human glucagon receptor (human, UniProt P47871 26-477)
human GLP-1 receptor = human GLP-1 receptor (human, UniProt P43220 24-463)
[1] = target: human Glucagon receptor (GCGR) (human, UniProt P47871 26-477)
[2] = target: human GLP-1 receptor (GLP1R) (human, UniProt P43220 24-463)

| Binder | hGCGR_EC50 (cAMP activity assay) (human glucagon receptor) | hGLP1R EC50 (cAMP activity assay) (human GLP-1 receptor) | Incretin Receptor Assay (cAMP) EC50, GCGR (Human) [1] | Incretin Receptor Assay (cAMP) EC50, GLP1R (Human) [2] |
| --- | --- | --- | --- | --- |
| B1 | 4.24 nM | 1.38 nM |  |  |
| B2 | 0.06 nM | 0.04 nM |  |  |
| B3 | 0.05 nM | 0.05 nM |  |  |
| B4 | 0.06 nM | 0.04 nM |  |  |
| HXQGTFTSDKSKYLDERAAQDFVXWLLDT (D-Ser (s) at 2; Nle(εN3) at 24; C-terminal amide) [PEP69] | 0.31 nM | 0.16 nM |  |  |
| H[dS]QGTFTSDK([γGlu-γGlu-C16])SKYLDERAAQDFVQWLLDT-NH2 [Control molecule PEP76 (Table 7)] |  |  | 0.009 nM | 0.007 nM |
| H[dS]QGTFTSDKSKYLDERAA[Lys(N3)]DFVQWLLDT-NH2 [PEP71] | 0.12 nM | 0.06 nM |  |  |
| B5 | 0.05 nM | 0.05 nM |  |  |
| B6 |  |  |  | 0.05 nM |
| HXEGTFTSDKSKYLDERAAQDFVXWLLDT (D-Ser (s) at 2; Lys 10 K(γEγEC16); Nle(εN3) at 24; C-terminal amide) [PEP75] | > 5 nM | 0.07 nM |  |  |
